Reference: paper PMC4822050, “Hemi-methylated DNA opens a closed conformation of UHRF1 to facilitate its histone recognition” (Nature Communications, 2016)
Residue numbers refer to the chain shown, from its start. Numbers in names are those of the source. Read-outs that look alike come from different tables or passages of the source.

Tests used:
Format in all cases: binding
H3K9me3 peptide (1–17) = test: ITC, H3K9me3 peptide (1-17) titrated into UHRF1 proteins
Experimental: (§1) For competition ITC experiments: the indicated proteins were pre-incubated with competitive peptide, protein or hm-DNA (at 1:2 molar ratio if not specified) for 10 min followed by ITC measurements as described above. Proteins, DNA and peptides were prepared within ITC buffer containing 10 mM HEPES, pH 8.0, 100 mM NaCl. The data were fitted by software Origin 7.0. All ITC results were summarized in Supplementary Table 2 and raw data were shown in Supplementary Fig. 9.

[1] = target: T1, Spacer (residues 587–674) of UHRF1 (Homo sapiens, UniProt Q96T88); test: ITC, interaction of UHRF1 domains with the Spacer
T1 construct: Spacer (residues 587–674); GST (N, cleaved yes); made in house; host or cells: E. coli BL21 (DE3)
T1 sequence (Q96T88 587-674): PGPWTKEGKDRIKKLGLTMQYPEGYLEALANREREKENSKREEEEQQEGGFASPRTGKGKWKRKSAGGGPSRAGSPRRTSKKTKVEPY
Experimental: as §1

[2] = target: T2, TTD (residues 134–285) of UHRF1 (Homo sapiens, UniProt Q96T88); test: ITC, TTD titrated into Spacer variants and other UHRF1 fragments; details: TTD in syringe
T2 construct: TTD (residues 134–285); GST (N, cleaved yes); made in house; host or cells: E. coli BL21 (DE3)
T2 sequence (Q96T88 134-285): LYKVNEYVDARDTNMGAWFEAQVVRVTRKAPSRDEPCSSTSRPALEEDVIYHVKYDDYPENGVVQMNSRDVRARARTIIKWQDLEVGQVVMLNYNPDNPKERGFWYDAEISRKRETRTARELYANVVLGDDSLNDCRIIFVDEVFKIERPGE
Experimental: as §1

hm-DNA (12 bp) = test: ITC, hm-DNA titrated into UHRF1 domains; details: 18 °C, 12-bp hm-DNA in syringe, named protein in cell, 10 mM HEPES pH 8.0, 100 mM NaCl
Experimental: as §1

[3] = ITC, 18 °C, named protein 0.05 mM in cell, H3K9me3 (1-17) 0.5 mM in syringe, 10 mM HEPES pH 8.0, 100 mM NaCl, read-out: KD

B1: UHRF1D334A: UHRF1 mutant D334A, which abolishes H3R2-binding affinity of the PHD (protein)
chain: MWIQVRTMDGRQTHTVDSLSRLTKVEELRRKIQELFHVEPGLQRLFYRGKQMEDGHTLFDYEVRLNDTIQLLVRQSLVLPHSTKERDSELSDTDSGCCLGQSESDKSSTHGEAAAETDSRPADEDMWDETELGLYKVNEYVDARDTNMGAWFEAQVVRVTRKAPSRDEPCSSTSRPALEEDVIYHVKYDDYPENGVVQMNSRDVRARARTIIKWQDLEVGQVVMLNYNPDNPKERGFWYDAEISRKRETRTARELYANVVLGDDSLNDCRIIFVDEVFKIERPGEGSPMVDNPMRRKSGPSCKHCKDDVNRLCRVCACHLCGGRQDPDKQLMCAECDMAFHIYCLDPPLSSVPSEDEWYCPECRNDASEVVLAGERLRESKKKAKMASATSSSQRDWGKGMACVGRTKECTIVPSNHYGPIPGIPVGTMWRFRVQVSESGVHRPHVAGIHGRSNDGAYSLVLAGGYEDDVDHGNFFTYTGSGGRDLSGNKRTAEQSCDQKLTNTNRALALNCFAPINDQEGAEAKDWRSGKPVRVVRNVKGGKNSKYAPAEGNRYDGIYKVVKYWPEKGKSGFLVWRYLLRRDDDEPGPWTKEGKDRIKKLGLTMQYPEGYLEALANREREKENSKREEEEQQEGGFASPRTGKGKWKRKSAGGGPSRAGSPRRTSKKTKVEPYSLTAQQSSLIREDKSNAKLWNEVLASLKDRPASGSPFQLFLSKVEETFQCICCQELVFRPITTVCQHNVCKDCLDRSFRAQVFSCPACRYDLGRSYAMQVNQPLQTVLNQLFPGYGNGR
modifications: left off: GST, end not stated, cleaved
H3K9me3 peptide (1–17); ITC, 18 °C, named protein 0.05 mM in cell, H3K9me3 (1-17) 0.5 mM in syringe, 10 mM HEPES pH 8.0, 100 mM NaCl
  KD: undetectable

B2: R295D/R296D mutant of full-length UHRF1: full-length UHRF1 with Linker mutation R295D/R296D (protein)
chain: B1 chain with R295D, R296D, A334D
modifications: left off: GST, end not stated, cleaved
H3K9me3 peptide (1–17); ITC, Supplementary Fig. 4g
  fold lower binding affinity to H3K9me3 than wild type UHRF1: eight

B3: UHRF1D334A&∆627-674: UHRF1 with mutation D334A and deletion of residues 627–674 (protein)
chain: MWIQVRTMDGRQTHTVDSLSRLTKVEELRRKIQELFHVEPGLQRLFYRGKQMEDGHTLFDYEVRLNDTIQLLVRQSLVLPHSTKERDSELSDTDSGCCLGQSESDKSSTHGEAAAETDSRPADEDMWDETELGLYKVNEYVDARDTNMGAWFEAQVVRVTRKAPSRDEPCSSTSRPALEEDVIYHVKYDDYPENGVVQMNSRDVRARARTIIKWQDLEVGQVVMLNYNPDNPKERGFWYDAEISRKRETRTARELYANVVLGDDSLNDCRIIFVDEVFKIERPGEGSPMVDNPMRRKSGPSCKHCKDDVNRLCRVCACHLCGGRQDPDKQLMCAECDMAFHIYCLDPPLSSVPSEDEWYCPECRNDASEVVLAGERLRESKKKAKMASATSSSQRDWGKGMACVGRTKECTIVPSNHYGPIPGIPVGTMWRFRVQVSESGVHRPHVAGIHGRSNDGAYSLVLAGGYEDDVDHGNFFTYTGSGGRDLSGNKRTAEQSCDQKLTNTNRALALNCFAPINDQEGAEAKDWRSGKPVRVVRNVKGGKNSKYAPAEGNRYDGIYKVVKYWPEKGKSGFLVWRYLLRRDDDEPGPWTKEGKDRIKKLGLTMQYPEGYLEALANREREKENSKSLTAQQSSLIREDKSNAKLWNEVLASLKDRPASGSPFQLFLSKVEETFQCICCQELVFRPITTVCQHNVCKDCLDRSFRAQVFSCPACRYDLGRSYAMQVNQPLQTVLNQLFPGYGNGR
modifications: left off: GST, end not stated, cleaved
H3K9me3 peptide (1–17); [3]
  Kd: 8.69 µM

B4: TTD–PHD: human UHRF1 residues 134–366 (protein)
chain: LYKVNEYVDARDTNMGAWFEAQVVRVTRKAPSRDEPCSSTSRPALEEDVIYHVKYDDYPENGVVQMNSRDVRARARTIIKWQDLEVGQVVMLNYNPDNPKERGFWYDAEISRKRETRTARELYANVVLGDDSLNDCRIIFVDEVFKIERPGEGSPMVDNPMRRKSGPSCKHCKDDVNRLCRVCACHLCGGRQDPDKQLMCDECDMAFHIYCLDPPLSSVPSEDEWYCPECRND
modifications: left off: GST, end not stated, cleaved
H3K9me3 peptide (1–17); ITC KD ratio
  fold higher binding affinity to H3K9me3 peptide than full-length UHRF1: ~31 fold
H3K9me3 peptide (1–17); [3]
  Kd: 0.15 µM
[1]; ITC stoichiometry, Spacer in syringe
  N: 0.887±0.0379
[1]; ITC, 18 °C, Spacer in syringe, named protein in cell, 10 mM HEPES pH 8.0, 100 mM NaCl
  Kd: 10.7 µM
[1]; ITC, Spacer in syringe
  ΔH: -6.561 ± 0.4116 kcal/mol
  ΔS: 0.285 cal/mol/deg
[1]; ITC, molar ratio of TTD-PHD or TTD: H3K9me3=1:2
  interaction between the Spacer and the named protein in the presence of H3K9me3: No detectable interaction

B5: Spacer: C-terminal spacer region of human UHRF1 (residues 587–674) (protein)
chain: T1 sequence (Q96T88 587-674)
modifications: left off: GST, end not stated, cleaved
H3K9me3 peptide (1–17); competition ITC, molar ratio TTD–PHD/Spacer=1:2, read-out: KD of H3K9me3 for TTD–PHD in the presence of the Spacer
  Kd: 1.63 ± 0.08 µM
[2]; ITC stoichiometry
  N: 0.95±0.00786
[2]; ITC
  ΔH: -1.13 E4±116.7 cal/mol
  ΔS: -12.3 cal/mol/deg
hm-DNA (12 bp)
  KD: no interaction
